Laboratory results taken from publication PMC10786891, “Massively parallel profiling of RNA-targeting CRISPR-Cas13d”.

T1: EsCas13d, nuclease-dead (Eubacterium siraeum, UniProt B0MS50, R295A;H300A;R849A;H854A)
T1 sequence: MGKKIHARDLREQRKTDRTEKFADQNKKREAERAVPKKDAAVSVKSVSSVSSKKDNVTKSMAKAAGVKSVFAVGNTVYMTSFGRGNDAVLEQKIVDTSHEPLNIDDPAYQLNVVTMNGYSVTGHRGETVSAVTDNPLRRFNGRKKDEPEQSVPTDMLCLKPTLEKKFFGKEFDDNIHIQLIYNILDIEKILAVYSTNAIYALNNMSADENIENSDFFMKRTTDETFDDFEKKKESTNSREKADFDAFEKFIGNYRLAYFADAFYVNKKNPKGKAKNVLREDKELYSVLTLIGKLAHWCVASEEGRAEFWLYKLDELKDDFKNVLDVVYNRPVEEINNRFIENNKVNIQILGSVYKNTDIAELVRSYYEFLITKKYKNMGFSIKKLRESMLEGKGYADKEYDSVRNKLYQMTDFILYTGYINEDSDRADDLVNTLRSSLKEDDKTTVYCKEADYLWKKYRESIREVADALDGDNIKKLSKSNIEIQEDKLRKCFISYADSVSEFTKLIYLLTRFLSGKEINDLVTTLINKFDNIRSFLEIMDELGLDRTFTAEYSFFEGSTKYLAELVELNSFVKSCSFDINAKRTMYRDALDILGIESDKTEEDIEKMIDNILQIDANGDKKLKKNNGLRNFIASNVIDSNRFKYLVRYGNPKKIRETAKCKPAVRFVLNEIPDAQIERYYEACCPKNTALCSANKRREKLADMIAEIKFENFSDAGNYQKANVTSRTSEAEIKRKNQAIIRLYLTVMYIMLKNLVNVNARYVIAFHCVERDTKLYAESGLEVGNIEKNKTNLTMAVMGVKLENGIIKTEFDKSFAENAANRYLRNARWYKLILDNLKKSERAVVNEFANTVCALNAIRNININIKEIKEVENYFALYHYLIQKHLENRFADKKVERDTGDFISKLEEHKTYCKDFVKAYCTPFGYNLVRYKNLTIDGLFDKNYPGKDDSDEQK


Molecular target: T1, EsCas13d, nuclease-dead
Test: crRNA (strand 1, pre-loaded); Mg2+; 40 mM Tris-HCl pH 7.5, 150 mM NaCl, 6 mM MgCl2, 1 mM DTT, 0.1% Tween-20, 0.2 mg/ml BSA; 25 C; 10 min per concentration, then washed
Details: tags: His6-TwinStrep-SUMO cleaved; N-terminal SNAP kept (SNAP-Surface 488); label: 3' end held by stalled T7 RNA polymerase

Binder | Kd [nM]
target 1 A1U,C6G (mixed) RNA 1: CACCCGUGCAAAAAUGCAGGGGUCUAAAACUGAGCGGAUAACCUCUCUAUGG RNA 2: GGGAAUGGAUCCACAUCUACGAAUUCGUACCAUAGAGAGGUUAUCGGCUCUCCGAGAUCGGAAGAGCACACGU | 12.1 ± 0.9
target 1 A9C,U11G (mixed) RNA 1: CACCCGUGCAAAAAUGCAGGGGUCUAAAACUGAGCGGAUAACCUCUCUAUGG RNA 2: GGGAAUGGAUCCACAUCUACGAAUUCGUACCAUAGAGAGGGUCUCCGCUCACCGAGAUCGGAAGAGCACACGU | 44 ± 6
target 1 A1U,C4U (mixed) RNA 1: CACCCGUGCAAAAAUGCAGGGGUCUAAAACUGAGCGGAUAACCUCUCUAUGG RNA 2: GGGAAUGGAUCCACAUCUACGAAUUCGUACCAUAGAGAGGUUAUCCGUUCUCCGAGAUCGGAAGAGCACACGU | 13 ± 1.7
target 3 insA 3' of 2 (mixed) RNA 1: CACCCGUGCAAAAUUGCAGGGGUCUAAAACGACCUGAAUAUUUCAGAUCAAA RNA 2: GGGAAUGGAUCCACAUCUACGAAUUCGUUUUUGAUCUGAAAUAUUCAGGUACUGCAGAUCGGAAGAGCACACGU | 30.2 ± 2.55
target 3 A12U,A18G (mixed) RNA 1: CACCCGUGCAAAAUUGCAGGGGUCUAAAACGACCUGAAUAUUUCAGAUCAAA RNA 2: GGGAAUGGAUCCACAUCUACGAAUUCGUUUUUGGUCUGAUAUAUUCAGGUCUGCAGAUCGGAAGAGCACACGU | 97 ± 34
target 3 insC 3' of 22,insC 3' of 3 (mixed) RNA 1: CACCCGUGCAAAAUUGCAGGGGUCUAAAACGACCUGAAUAUUUCAGAUCAAA RNA 2: GGGAAUGGAUCCACAUCUACGAAUUCGUUUCUUGAUCUGAAAUAUUCAGGCUCUGCAGAUCGGAAGAGCACACGU | 33 ± 4.5
target 3 insG 3' of 8,insC 3' of 8 (mixed) RNA 1: CACCCGUGCAAAAUUGCAGGGGUCUAAAACGACCUGAAUAUUUCAGAUCAAA RNA 2: GGGAAUGGAUCCACAUCUACGAAUUCGUUUUUGAUCUGAAAUAUGCUCAGGUCUGCAGAUCGGAAGAGCACACGU | 58 ± 8.5
target 3 A5U,C6U (mixed) RNA 1: CACCCGUGCAAAAUUGCAGGGGUCUAAAACGACCUGAAUAUUUCAGAUCAAA RNA 2: GGGAAUGGAUCCACAUCUACGAAUUCGUUUUUGAUCUGAAAUAUUUUGGUCUGCAGAUCGGAAGAGCACACGU | 48 ± 6
target 3 insA 3' of 8,insC 3' of 8 (mixed) RNA 1: CACCCGUGCAAAAUUGCAGGGGUCUAAAACGACCUGAAUAUUUCAGAUCAAA RNA 2: GGGAAUGGAUCCACAUCUACGAAUUCGUUUUUGAUCUGAAAUAUACUCAGGUCUGCAGAUCGGAAGAGCACACGU | 63 ± 10
target 3 insA 3' of 21,insA 3' of 6 (mixed) RNA 1: CACCCGUGCAAAAUUGCAGGGGUCUAAAACGACCUGAAUAUUUCAGAUCAAA RNA 2: GGGAAUGGAUCCACAUCUACGAAUUCGUUUUAUGAUCUGAAAUAUUCAAGGUCUGCAGAUCGGAAGAGCACACGU | 38.4 ± 4.75
target 3 insA 3' of 2,insA 3' of 1 (mixed) RNA 1: CACCCGUGCAAAAUUGCAGGGGUCUAAAACGACCUGAAUAUUUCAGAUCAAA RNA 2: GGGAAUGGAUCCACAUCUACGAAUUCGUUUUUGAUCUGAAAUAUUCAGGUACAUGCAGAUCGGAAGAGCACACGU | 34.3 ± 4.25
target 3 G4A,U8G (mixed) RNA 1: CACCCGUGCAAAAUUGCAGGGGUCUAAAACGACCUGAAUAUUUCAGAUCAAA RNA 2: GGGAAUGGAUCCACAUCUACGAAUUCGUUUUUGAUCUGAAAUAGUCAAGUCUGCAGAUCGGAAGAGCACACGU | 77.5 ± 21
target 3 insC 3' of 18,insA 3' of 17 (mixed) RNA 1: CACCCGUGCAAAAUUGCAGGGGUCUAAAACGACCUGAAUAUUUCAGAUCAAA RNA 2: GGGAAUGGAUCCACAUCUACGAAUUCGUUUUUGACUACUGAAAUAUUCAGGUCUGCAGAUCGGAAGAGCACACGU | 34.5 ± 11
target 3 insA 3' of 6,insU 3' of 5 (mixed) RNA 1: CACCCGUGCAAAAUUGCAGGGGUCUAAAACGACCUGAAUAUUUCAGAUCAAA RNA 2: GGGAAUGGAUCCACAUCUACGAAUUCGUUUUUGAUCUGAAAUAUUCAAUGGUCUGCAGAUCGGAAGAGCACACGU | 4 ± 0.27
target 3 A5G,A18G (mixed) RNA 1: CACCCGUGCAAAAUUGCAGGGGUCUAAAACGACCUGAAUAUUUCAGAUCAAA RNA 2: GGGAAUGGAUCCACAUCUACGAAUUCGUUUUUGGUCUGAAAUAUUCGGGUCUGCAGAUCGGAAGAGCACACGU | 30.6 ± 4.5
target 3 insU 3' of 13,insA 3' of 2 (mixed) RNA 1: CACCCGUGCAAAAUUGCAGGGGUCUAAAACGACCUGAAUAUUUCAGAUCAAA RNA 2: GGGAAUGGAUCCACAUCUACGAAUUCGUUUUUGAUCUGAUAAUAUUCAGGUACUGCAGAUCGGAAGAGCACACGU | 74 ± 17.5
target 3 U8C,A9G (mixed) RNA 1: CACCCGUGCAAAAUUGCAGGGGUCUAAAACGACCUGAAUAUUUCAGAUCAAA RNA 2: GGGAAUGGAUCCACAUCUACGAAUUCGUUUUUGAUCUGAAAUGCUCAGGUCUGCAGAUCGGAAGAGCACACGU | 77 ± 15.5
target 3 del6,del9 (mixed) RNA 1: CACCCGUGCAAAAUUGCAGGGGUCUAAAACGACCUGAAUAUUUCAGAUCAAA RNA 2: GGGAAUGGAUCCACAUCUACGAAUUCGUUUUUGAUCUGAAAUUUAGGUCUGCAGAUCGGAAGAGCACACGU | 120 ± 24
target 3 G3U,A5G (mixed) RNA 1: CACCCGUGCAAAAUUGCAGGGGUCUAAAACGACCUGAAUAUUUCAGAUCAAA RNA 2: GGGAAUGGAUCCACAUCUACGAAUUCGUUUUUGAUCUGAAAUAUUCGGUUCUGCAGAUCGGAAGAGCACACGU | 25.4 ± 2.4
target 3 U2C,A5U (mixed) RNA 1: CACCCGUGCAAAAUUGCAGGGGUCUAAAACGACCUGAAUAUUUCAGAUCAAA RNA 2: GGGAAUGGAUCCACAUCUACGAAUUCGUUUUUGAUCUGAAAUAUUCUGGCCUGCAGAUCGGAAGAGCACACGU | 36.4 ± 3.4
target 3 U2A,U8C (mixed) RNA 1: CACCCGUGCAAAAUUGCAGGGGUCUAAAACGACCUGAAUAUUUCAGAUCAAA RNA 2: GGGAAUGGAUCCACAUCUACGAAUUCGUUUUUGAUCUGAAAUACUCAGGACUGCAGAUCGGAAGAGCACACGU | 44.5 ± 6
target 3 G4A,U8C (mixed) RNA 1: CACCCGUGCAAAAUUGCAGGGGUCUAAAACGACCUGAAUAUUUCAGAUCAAA RNA 2: GGGAAUGGAUCCACAUCUACGAAUUCGUUUUUGAUCUGAAAUACUCAAGUCUGCAGAUCGGAAGAGCACACGU | 52.8 ± 5.6
target 3 insG 3' of 8,insC 3' of 3 (mixed) RNA 1: CACCCGUGCAAAAUUGCAGGGGUCUAAAACGACCUGAAUAUUUCAGAUCAAA RNA 2: GGGAAUGGAUCCACAUCUACGAAUUCGUUUUUGAUCUGAAAUAUGUCAGGCUCUGCAGAUCGGAAGAGCACACGU | 38.8 ± 5.05
target 3 insU 3' of 5,insA 3' of 3 (mixed) RNA 1: CACCCGUGCAAAAUUGCAGGGGUCUAAAACGACCUGAAUAUUUCAGAUCAAA RNA 2: GGGAAUGGAUCCACAUCUACGAAUUCGUUUUUGAUCUGAAAUAUUCAUGGAUCUGCAGAUCGGAAGAGCACACGU | 6.39 ± 0.52
target 3 insA 3' of 3,insG 3' of 2 (mixed) RNA 1: CACCCGUGCAAAAUUGCAGGGGUCUAAAACGACCUGAAUAUUUCAGAUCAAA RNA 2: GGGAAUGGAUCCACAUCUACGAAUUCGUUUUUGAUCUGAAAUAUUCAGGAUGCUGCAGAUCGGAAGAGCACACGU | 24.6 ± 3.4
target 3 insC 3' of 5,insG 3' of 2 (mixed) RNA 1: CACCCGUGCAAAAUUGCAGGGGUCUAAAACGACCUGAAUAUUUCAGAUCAAA RNA 2: GGGAAUGGAUCCACAUCUACGAAUUCGUUUUUGAUCUGAAAUAUUCACGGUGCUGCAGAUCGGAAGAGCACACGU | 29 ± 2.8
target 3 insC 3' of 3,insG 3' of 2 (mixed) RNA 1: CACCCGUGCAAAAUUGCAGGGGUCUAAAACGACCUGAAUAUUUCAGAUCAAA RNA 2: GGGAAUGGAUCCACAUCUACGAAUUCGUUUUUGAUCUGAAAUAUUCAGGCUGCUGCAGAUCGGAAGAGCACACGU | 10.6 ± 1.25
target 3 A12G,U22G (mixed) RNA 1: CACCCGUGCAAAAUUGCAGGGGUCUAAAACGACCUGAAUAUUUCAGAUCAAA RNA 2: GGGAAUGGAUCCACAUCUACGAAUUCGUUGUUGAUCUGAGAUAUUCAGGUCUGCAGAUCGGAAGAGCACACGU | 86 ± 20
